# Article PMC5402964
# Target: α5β1 integrin (UniProt P08648)
# Assay: SPR
substance,measurement,value
"DisBa-01 (disintegrin of Bothrops alternatus), recombinant His-tag protein (natural protein; other documents disagree on this pair)",Kd,76.2 µM
